Assay results taken from patent US10800847.

Experiments:
HLA-B*1801 (B18) (human) = experiment: Luminex regular beads (#7), IVIg diluted 1:8
HLA-B*1511 (B75) (human) = experiment: Luminex regular beads (#7), IVIg diluted 1:8
HLA-B*1401 (B64) (human) = experiment: Luminex regular beads (#7), IVIg diluted 1:8
HLA-B*1302 (B13) (human) = experiment: Luminex regular beads (#7), IVIg diluted 1:8
HLA-B*1513 (B77) (human) = experiment: Luminex regular beads (#7), IVIg diluted 1:8
HLA-B*1516 (B63) (human) = experiment: Luminex regular beads (#7), IVIg diluted 1:8
HLA-B*1510 (B71) (human) = experiment: Luminex regular beads (#7), IVIg diluted 1:8
HLA-B*1512 (B76) (human) = experiment: Luminex regular beads (#7), IVIg diluted 1:8
HLA-B*0702 (B7) (human) = experiment: Luminex regular beads (#7), IVIg diluted 1:8
HLA-B*1301 (B13) (human) = experiment: Luminex regular beads (#7), IVIg diluted 1:8
HLA-B*0801 (B8) (human) = experiment: Luminex regular beads (#7), IVIg diluted 1:8
HLA-B*1402 (B65) (human) = experiment: Luminex regular beads (#7), IVIg diluted 1:8
HLA-B*1503 (B72) (human) = experiment: Luminex regular beads (#7), IVIg diluted 1:8
HLA-B*1502 (B75) (human) = experiment: Luminex regular beads (#7), IVIg diluted 1:8
HLA-B*8201 (B82) (human) [1] = experiment: Luminex, regular beads (#7), 1:8
[2] = biological target: HLA-Cw*1701 (Cw17) (human); experiment: Luminex, regular beads (#7), 1:8
[3] = biological target: HLA-Cw*1502 (Cw15) (human); experiment: Luminex, regular beads (#7), 1:8
[4] = biological target: Albumin (negative control beads) (human or bovine); experiment: Luminex, regular beads (#7), 1:8
[5] = biological target: HLA-Cw*0304 (Cw10) (human); experiment: Luminex, regular beads (#7), 1:8
[6] = biological target: HLA-Cw*0702 (Cw7) (human); experiment: Luminex, regular beads (#7), 1:8
[7] = biological target: HLA-Cw*1402 (Cw14) (human); experiment: Luminex, regular beads (#7), 1:8
[8] = biological target: HLA-Cw*1601 (Cw16) (human); experiment: Luminex, regular beads (#7), 1:8
[9] = biological target: HLA-Cw*0102 (Cw1) (human); experiment: Luminex, regular beads (#7), 1:8
[10] = biological target: HLA-Cw*0202 (Cw2) (human); experiment: Luminex, regular beads (#7), 1:8
[11] = biological target: HLA-Cw*0303 (Cw9) (human); experiment: Luminex, regular beads (#7), 1:8
[12] = biological target: HLA-Cw*1802 (Cw18) (human); experiment: Luminex, regular beads (#7), 1:8
[13] = biological target: HLA-Cw*1203 (Cw12) (human); experiment: Luminex, regular beads (#7), 1:8
[14] = biological target: HLA-Cw*0501 (Cw5) (human); experiment: Luminex, regular beads (#7), 1:8
[15] = biological target: HLA-Cw*0302 (Cw10) (human); experiment: Luminex, regular beads (#7), 1:8
[16] = biological target: HLA-Cw*0401 (Cw4) (human); experiment: Luminex, regular beads (#7), 1:8
HLA-B*8201 (B82) (human) [17] = experiment: Luminex, iBead vs regular bead MFI, 1:8
[18] = biological target: HLA-Cw*1701 (Cw17) (human); experiment: Luminex, iBead vs regular bead MFI, 1:8
[19] = biological target: HLA-Cw*1502 (Cw15) (human); experiment: Luminex, iBead vs regular bead MFI, 1:8
[20] = biological target: Albumin (negative control beads) (human or bovine); experiment: Luminex, iBead vs regular bead MFI, 1:8
[21] = biological target: HLA-Cw*0304 (Cw10) (human); experiment: Luminex, iBead vs regular bead MFI, 1:8
[22] = biological target: HLA-Cw*0702 (Cw7) (human); experiment: Luminex, iBead vs regular bead MFI, 1:8
[23] = biological target: HLA-Cw*1402 (Cw14) (human); experiment: Luminex, iBead vs regular bead MFI, 1:8
[24] = biological target: HLA-Cw*1601 (Cw16) (human); experiment: Luminex, iBead vs regular bead MFI, 1:8
[25] = biological target: HLA-Cw*0102 (Cw1) (human); experiment: Luminex, iBead vs regular bead MFI, 1:8
[26] = biological target: HLA-Cw*0202 (Cw2) (human); experiment: Luminex, iBead vs regular bead MFI, 1:8
[27] = biological target: HLA-Cw*0801 (Cw8) (human); experiment: Luminex, iBead vs regular bead MFI, 1:8
[28] = biological target: HLA-Cw*0303 (Cw9) (human); experiment: Luminex, iBead vs regular bead MFI, 1:8
[29] = biological target: HLA-Cw*1802 (Cw18) (human); experiment: Luminex, iBead vs regular bead MFI, 1:8
[30] = biological target: HLA-Cw*0501 (Cw5) (human); experiment: Luminex, iBead vs regular bead MFI, 1:8
[31] = biological target: HLA-Cw*0302 (Cw10) (human); experiment: Luminex, iBead vs regular bead MFI, 1:8
[32] = biological target: HLA-Cw*0401 (Cw4) (human); experiment: Luminex, iBead vs regular bead MFI, 1:8
[33] = biological target: HLA-Cw*0602 (Cw6) (human); experiment: Luminex, iBead vs regular bead MFI, 1:8

With “IVIg Octagam (Octapharma, Lachen, Switzerland) (antibody)” as the substance, how does the MFI (HLA-B*1801 (B18) (human)) read?
Its MFI is 246 MFI.

What about the MFI (HLA-B*1511 (B75) (human)) of the same substance?
Its MFI is 3640 MFI.

And the MFI (HLA-B*1401 (B64) (human))?
Its MFI is 2400 MFI.

And the MFI (HLA-B*1302 (B13) (human))?
Its MFI is 1940 MFI.

And the MFI (HLA-B*1513 (B77) (human))?
The MFI was 2260 MFI.

What about the MFI (HLA-B*1516 (B63) (human)) of the same substance?
Its MFI is 3130 MFI.

What about the MFI (HLA-B*1510 (B71) (human)) of the same substance?
Its MFI is 1290 MFI.

And the MFI (HLA-B*1512 (B76) (human))?
The MFI was 1130 MFI.

What about the MFI (HLA-B*0702 (B7) (human)) of the same substance?
The MFI was 714 MFI.

And the MFI (HLA-B*1301 (B13) (human))?
Its MFI is 3680 MFI.

And the MFI (HLA-B*0801 (B8) (human))?
The MFI was 2120 MFI.

And the MFI (HLA-B*1402 (B65) (human))?
Its MFI is 1460 MFI.

What about the MFI (HLA-B*1503 (B72) (human)) of the same substance?
Its MFI is 1060 MFI.

And the MFI (HLA-B*1502 (B75) (human))?
Its MFI is 861 MFI.

What about the MFI (HLA-B*8201 (B82) (human) [1]) of the same substance?
Its MFI is 5030 MFI.

And the MFI [2]?
Its MFI is 8980 MFI.

What about the MFI [3] of the same substance?
The MFI was 4820 MFI.

And the MFI [4]?
The MFI was 2340 MFI.

What about the MFI [5] of the same substance?
The MFI was 5550 MFI.

What about the MFI [6] of the same substance?
Its MFI is 15300 MFI.

What about the MFI [7] of the same substance?
The MFI was 8430 MFI.

What about the MFI [8] of the same substance?
Its MFI is 9260 MFI.

And the MFI [9]?
The MFI was 7720 MFI.

What about the MFI [10] of the same substance?
Its MFI is 9380 MFI.

And the MFI [11]?
Its MFI is 3350 MFI.

What about the MFI [12] of the same substance?
Its MFI is 10600 MFI.

And the MFI [13]?
The MFI was 8660 MFI.

And the MFI [14]?
Its MFI is 8770 MFI.

And the MFI [15]?
The MFI was 5610 MFI.

What about the MFI [16] of the same substance?
The MFI was 9880 MFI.

What about the Difference % (HLA-B*8201 (B82) (human) [17]) of the same substance?
The Difference % was -90%.

And the Difference % [18]?
The Difference % was -70%.

And the Difference % [19]?
Its Difference % is -95%.

What about the Difference % [20] of the same substance?
Its Difference % is -29%.

What about the Difference % [21] of the same substance?
Its Difference % is -74%.

What about the Difference % [22] of the same substance?
The Difference % was -89%.

What about the Difference % [23] of the same substance?
Its Difference % is -88%.

What about the Difference % [24] of the same substance?
Its Difference % is -88%.

And the Difference % [25]?
Its Difference % is -77%.

What about the Difference % [26] of the same substance?
Its Difference % is -80%.

What about the Difference % [27] of the same substance?
The Difference % was -85%.

And the Difference % [28]?
The Difference % was -64%.

What about the Difference % [29] of the same substance?
Its Difference % is -92%.

And the Difference % [30]?
Its Difference % is -83%.

And the Difference % [31]?
Its Difference % is -79%.

What about the Difference % [32] of the same substance?
The Difference % was -80%.

What about the Difference % [33] of the same substance?
The Difference % was -96%.
